This passage reports percent of 125I-HRG binding blocked results from patent US20020119148A1.

Assay [1] has as its target HRG binding sites on human mammary carcinoma cell lines MDA-MB-453, T47D and BT474. The assay is described as follows: self-competition, 100 nM unlabeled HRG against 125I-HRG on T47D cells.
Assay [2] shares this target. Kind of assay: self-competition, 100 nM unlabeled HRG against 125I-HRG on BT474 cells.
Assay [3] shares this target. The assay is described as follows: self-competition, 100 nM unlabeled HRG against 125I-HRG on MDA-MB-453 cells.
Assay [4] has as its target HER-2 on human mammary carcinoma cell lines MDA-MB-453, T47D and BT474 (human) (UniProt P04626). The assay is described as follows: 125I-HRG binding to T47D cells, 100 nM Mab.

As for “HRGβ1(177-244), EGF-like domain of heregulin β1 (from UniProt Q02297 177-244) (ligand)”, the percent of 125I-HRG binding blocked in assay [1] is 98%; in assay [2], 96%; in assay [3], 99%.
In turn, anti-HER-2 control Mab 4D5 (antibody) gave a percent of 125I-HRG binding blocked in assay [4] of 48%.
